# B1: Sentrin-specific protease 7 (Homo sapiens), Q9BQF6 (parent)
# chain: MDKRKLGRRPSSSEIITEGKRKKSSSDLSEIRKMLNAKPEDVHVQSPLSKFRSSERWTLPLQWERSLRNKVISLDHKNKKHIRGCPVTSKSSPERQLKVMLTNVLWTDLGRKFRKTLPRNDANLCDANKVQSDSLPSTSVDSLETCQKLEPLRQSLNLSERIPRVILTNVLGTELGRKYIRTPPVTEGSLSDTDNLQSEQLSSSSDGSLESYQNLNPHKSCYLSERGSQRSKTVDDNSAKQTAHNKEKRRKDDGISLLISDTQPEDLNSGSRGCDHLEQESRNKDVKYSDSKVELTLISRKTKRRLRNNLPDSQYCTSLDKSTEQTKKQEDDSTISTEFEKPSENYHQDPKLPEEITTKPTKSDFTKLSSLNSQELTLSNATKSASAGSTTETVENSNSIDIVGISSLVEKDENELNTIEKPILRGHNEGNQSLISAEPIVVSSDEEGPVEHKSSEILKLQSKQDRETTNENESTSESALLELPLITCESVQMSSELCPYNPVMENISSIMPSNEMDLQLDFIFTSVYIGKIKGASKGCVTITKKYIKIPFQVSLNEISLLVDTTHLKRFGLWKSKDDNHSKRSHAILFFWVSSDYLQEIQTQLEHSVLSQQSKSSEFIFLELHNPVSQREELKLKDIMTEISIISGELELSYPLSWVQAFPLFQNLSSKESSFIHYYCVSTCSFPAGVAVAEEMKLKSVSQPSNTDAAKPTYTFLQKQSSGCYSLSITSNPDEEWREVRHTGLVQKLIVYPPPPTKGGLGVTNEDLECLEEGEFLNDVIIDFYLKYLILEKASDELVERSHIFSSFFYKCLTRKENNLTEDNPNLSMAQRRHKRVRTWTRHINIFNKDYIFVPVNESSHWYLAVICFPWLEEAVYEDFPQTVSQQSQAQQSQNDNKTIDNDLRTTSTLSLSAEDSQSTESNMSVPKKMCKRPCILILDSLKAASVQNTVQNLREYLEVEWEVKLKTHRQFSKTNMVDLCPKVPKQDNSSDCGVYLLQYVESFFKDPIVNFELPIHLEKWFPRHVIKTKREDIRELILKLHLQQQKGSSS
# Variants of: B1
# Conditions: with cbx5_human CBX5, P45973
# cbx5_human CBX5, P45973, sequence (P45973 whole entry): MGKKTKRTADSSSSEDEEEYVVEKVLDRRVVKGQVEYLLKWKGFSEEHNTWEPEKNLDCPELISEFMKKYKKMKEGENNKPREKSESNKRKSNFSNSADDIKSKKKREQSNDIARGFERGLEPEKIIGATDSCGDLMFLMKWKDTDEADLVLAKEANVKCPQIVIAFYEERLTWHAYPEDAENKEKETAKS
row,effect of a mutation on the interaction,Variant
1,disrupting interaction,L149A;L152A;L156A;L158A;P163A;V165A

# Variants of: B1
# Conditions: with tif1b_human TRIM28, Q13263
# tif1b_human TRIM28, Q13263, sequence (Q13263 whole entry): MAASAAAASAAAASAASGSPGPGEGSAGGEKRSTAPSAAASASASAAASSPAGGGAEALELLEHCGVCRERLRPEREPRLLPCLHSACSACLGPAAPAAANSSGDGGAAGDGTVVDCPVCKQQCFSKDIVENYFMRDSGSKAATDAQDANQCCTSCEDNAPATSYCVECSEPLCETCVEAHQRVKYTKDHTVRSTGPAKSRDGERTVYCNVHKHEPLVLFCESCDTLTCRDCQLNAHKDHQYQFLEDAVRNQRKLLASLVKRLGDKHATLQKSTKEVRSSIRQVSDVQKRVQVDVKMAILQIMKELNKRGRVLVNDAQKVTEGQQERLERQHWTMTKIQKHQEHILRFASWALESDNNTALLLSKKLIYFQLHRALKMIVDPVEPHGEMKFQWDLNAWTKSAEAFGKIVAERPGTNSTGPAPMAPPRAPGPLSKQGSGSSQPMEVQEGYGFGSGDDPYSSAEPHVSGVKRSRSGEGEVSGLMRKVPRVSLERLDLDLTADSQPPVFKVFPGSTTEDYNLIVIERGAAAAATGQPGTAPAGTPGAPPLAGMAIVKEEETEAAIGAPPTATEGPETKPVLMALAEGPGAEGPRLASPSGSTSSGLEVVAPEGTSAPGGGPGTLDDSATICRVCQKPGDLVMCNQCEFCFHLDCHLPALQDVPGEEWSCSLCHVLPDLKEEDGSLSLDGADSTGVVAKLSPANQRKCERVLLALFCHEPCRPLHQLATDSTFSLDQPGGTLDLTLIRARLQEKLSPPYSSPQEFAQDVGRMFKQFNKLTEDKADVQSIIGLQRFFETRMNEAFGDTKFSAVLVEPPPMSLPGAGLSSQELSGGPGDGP
row,effect of a mutation on the interaction,Variant
1,disrupting interaction,L149A;L152A;L156A;L158A;P163A;V165A

# Variants of: B1
# Conditions: with tif1b_human TRIM28, Q13263
# Remark: another data set of the same source
row,effect of a mutation on the interaction,Variant
1,increasing interaction,C992A

# Reference: IntAct's records for PubMed 24018422
